In PMC6231261, “Enhanced triacylglycerol production in the diatom Phaeodactylum tricornutum by inactivation of a Hotdog-fold thioesterase gene using TALEN-based targeted mutagenesis” (Biotechnology for Biofuels, 2018):

Legend:
Assay in all cases: DTNB spectrophotometric CoA release (A412)
Format in all cases: biochemical, Phaeodactylum tricornutum
[1] = substrate: CCCCCCCCCCCCCCCC(=O)SCCNC(=O)CCNC(=O)[C@H](O)C(C)(C)COP(=O)(O)OP(=O)(O)OC[C@H]1O[C@@H](n2cnc3c(N)ncnc32)[C@H](O)[C@@H]1OP(=O)(O)O; details: 10 mM HEPES pH 7.5, 50 mM KCl, 0.3 mM DTNB, room temperature in methods (37 °C in Fig. 1 legend), substrate inhibition above 60 μM
Description: (§1) DTNB spectrophotometric CoA release (A412) on ptTES1

[2] = substrate: CCCCCCCC/C=C\CCCCCCCC(=O)SCCNC(=O)CCNC(=O)[C@H](O)C(C)(C)COP(=O)(O)OP(=O)(O)OC[C@H]1O[C@@H](n2cnc3c(N)ncnc32)[C@H](O)[C@@H]1OP(=O)(O)O; details: 10 mM HEPES pH 7.5, 50 mM KCl, 0.3 mM DTNB, room temperature in methods (37 °C in Fig. 1 legend), substrate inhibition above 60 μM
Description: as §1

[3] = substrate: CC/C=C\C/C=C\C/C=C\C/C=C\C/C=C\CCCC(=O)SCCNC(=O)CCNC(=O)[C@H](O)C(C)(C)COP(=O)(O)OP(=O)(O)OC[C@H]1O[C@@H](n2cnc3c(N)ncnc32)[C@H](O)[C@@H]1OP(=O)(O)O; details: 10 mM HEPES pH 7.5, 50 mM KCl, 0.3 mM DTNB, room temperature in methods (37 °C in Fig. 1 legend)
Description: as §1

[4] = substrate: CCCCCCCCCC(=O)SCCNC(=O)CCNC(=O)[C@H](O)C(C)(C)COP(=O)(O)OP(=O)(O)OC[C@H]1O[C@@H](n2cnc3c(N)ncnc32)[C@H](O)[C@@H]1OP(=O)(O)O; details: 10 mM HEPES pH 7.5, 50 mM KCl, 0.3 mM DTNB, room temperature in methods (37 °C in Fig. 1 legend)
Description: as §1

[5] = substrate: CCCCCCCCCCCCCC(=O)SCCNC(=O)CCNC(=O)[C@H](O)C(C)(C)COP(=O)(O)OP(=O)(O)OC[C@H]1O[C@@H](n2cnc3c(N)ncnc32)[C@H](O)[C@@H]1OP(=O)(O)O; details: 10 mM HEPES pH 7.5, 50 mM KCl, 0.3 mM DTNB, room temperature in methods (37 °C in Fig. 1 legend)
Description: as §1

[6] = substrate: CC(C)(COP(=O)(O)OP(=O)(O)OC[C@H]1O[C@@H](n2cnc3c(N)ncnc32)[C@H](O)[C@@H]1OP(=O)(O)O)[C@@H](O)C(=O)NCCC(=O)NCCSC(=O)CC(=O)O; details: 10 mM HEPES pH 7.5, 50 mM KCl, 0.3 mM DTNB, room temperature in methods (37 °C in Fig. 1 legend)
Description: as §1

[7] = substrate: CCCCCCCCCCCCCCCCCC(=O)SCCNC(=O)CCNC(=O)[C@H](O)C(C)(C)COP(=O)(O)OP(=O)(O)OC[C@H]1O[C@@H](n2cnc3c(N)ncnc32)[C@H](O)[C@@H]1OP(=O)(O)O; details: 10 mM HEPES pH 7.5, 50 mM KCl, 0.3 mM DTNB, room temperature in methods (37 °C in Fig. 1 legend)
Description: as §1

B1: ptTES1 (Phaeodactylum tricornutum CCAP 1055/1) (protein)
chain: MGLIHTPRTIVSIAKGLWKRRQGTVDWPGLGPDKPYVYNARLGLFDVDYLGHLNNAAYLSHAELARWELTAANGMLTSMLQSGTNFIVSGSCIRYRQEIRPVFRKFQVDTYVAGLDQRTIWMVQNFRYPGQNERIRAQMIVQGVAVQKTKGIIDPRSFFVDTVGMPSDLIESVNLPITSDDTVEDVLERYSFLEKALRRAATVDDELQKKEANKE
notes: codon-optimized synthetic gene in pET28a, His6-tagged, E. coli Rosetta (DE3), Ni-NTA purified, about 25 kDa on SDS-PAGE; tag removal not mentioned
With B1 as the protein, how does the Km [1] read?
The Km was 14.76 µM.

And the Vmax [1]?
The Vmax was 0.0453 µmol/min/mg.

And the kcat [1]?
Its kcat is 0.0196 s⁻¹.

And the kcat/Km [1]?
The kcat/Km was 1330 M⁻¹ s⁻¹.

And the Km [2]?
Its Km is 12.37 µM.

What about the Vmax [2] of the same protein?
The Vmax was 0.0508 µmol/min/mg.

And the kcat [2]?
Its kcat is 0.022 s⁻¹.

What about the kcat/Km [2] of the same protein?
Its kcat/Km is 1780 M⁻¹ s⁻¹.

And the Km [3]?
The Km was 38.61 µM.

And the Vmax [3]?
Its Vmax is 0.0164 µmol/min/mg.

What about the kcat [3] of the same protein?
The kcat was 0.0071 s⁻¹.

What about the kcat/Km [3] of the same protein?
Its kcat/Km is 184 M⁻¹ s⁻¹.

And the Km [4]?
The Km was 91.76 µM.

And the Vmax [4]?
The Vmax was 0.0228 µmol/min/mg.

And the kcat [4]?
The kcat was 0.0099 s⁻¹.

And the kcat/Km [4]?
The kcat/Km was 108 M⁻¹ s⁻¹.

What about the Km [5] of the same protein?
The Km was 21.79 µM.

What about the Vmax [5] of the same protein?
The Vmax was 0.0302 µmol/min/mg.

What about the kcat [5] of the same protein?
The kcat was 0.0131 s⁻¹.

What about the kcat/Km [5] of the same protein?
The kcat/Km was 602 M⁻¹ s⁻¹.

What about the Km [6] of the same protein?
The Km was 14.64 µM.

What about the Vmax [6] of the same protein?
Its Vmax is 0.00205 µmol/min/mg.

What about the kcat [6] of the same protein?
The kcat was 0.0009 s⁻¹.

And the kcat/Km [6]?
Its kcat/Km is 60.7 M⁻¹ s⁻¹.

What about the Km [7] of the same protein?
The Km was 8.246 µM.

What about the Vmax [7] of the same protein?
The Vmax was 0.0451 µmol/min/mg.

What about the kcat [7] of the same protein?
Its kcat is 0.0196 s⁻¹.

And the kcat/Km [7]?
Its kcat/Km is 2370 M⁻¹ s⁻¹.
